Assay results taken from patent CN101643510A.

Assays:
[1] = molecular target: CD25人源化单抗 (Zenapax, ROCHE公司产品); assay: sandwich ELISA, compared with the commercial anti-kappa capture antibody
[2] = molecular target: CD25人源化单抗 (Zenapax, ROCHE公司产品); assay: sandwich ELISA, 5G7 coated at 1 μg/ml, Zenapax titrated, HRP anti-human IgG Fc gamma detection

B1: 重组抗CD25人源化单克隆抗体的抗体 5G7 (antibody, V domains shown)
VH: EVKLEESGGGLEQPGGSMKLSCVASGFTFSNYWMNWVRQSPDKGLEWVAQIRWKSDNYATHYAESVKGRFSISRDDSKSSVYLQMNNLRVEDSGIYYCTGGGSYVAHWGQGTLVTVSA
VL: DIVLTQSPASLAVSLGQSVTVSCRASESVENYGTTLMQWYQQKPGQPPKLLIYGVSNVESGVPARFSGSGSGTDFTLNIHPVEEDDIAMYFCQQSRKVPWTFGGGTKLEIKR
- 灵敏度 fold against 市售抗体 [1]: 100 fold
- 灵敏度 (detection sensitivity) [2]: 0.01 ng/mL
